# Source: publication PMC9352680, “A comprehensive thermodynamic model for RNA binding by the Saccharomyces cerevisiae Pumilio protein PUF4”
# T1: PUF4 RNA-binding domain (Saccharomyces cerevisiae, UniProt P25339 537-888)
# T1 sequence: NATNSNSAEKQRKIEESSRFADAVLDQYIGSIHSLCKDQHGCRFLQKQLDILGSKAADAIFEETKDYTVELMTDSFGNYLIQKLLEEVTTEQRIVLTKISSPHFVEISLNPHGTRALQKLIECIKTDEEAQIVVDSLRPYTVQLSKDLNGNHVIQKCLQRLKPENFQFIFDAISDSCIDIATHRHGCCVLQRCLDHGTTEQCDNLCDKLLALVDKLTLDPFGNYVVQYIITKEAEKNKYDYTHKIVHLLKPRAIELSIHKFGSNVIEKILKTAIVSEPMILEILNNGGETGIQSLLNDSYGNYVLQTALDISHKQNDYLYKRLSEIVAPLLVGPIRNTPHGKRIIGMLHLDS
# Target: T1, PUF4 RNA-binding domain
# Experiment: Mg; RNA-MaP; 20 mM Na-HEPES pH 7.4, 30 mM KOAc, 0.75 mM MgCl2, 0.1% Tween-20, 5% glycerol, 0.1 mg/mL BSA, 2 mM DTT; 25 C; 0.0125-409.6 nM protein
# Conditions: tags: N-His6-TEV cleaved; C-SNAP kept, Cy3B-labelled; label: tethered on chip by stalled RNA polymerase
row,Binder,Kd
1,UCUCUUUGUACCUCUCUCUU (ssRNA) [Ic_S1_P3E.1_K3.1_C3.1_H3.1_A3.1_[T5C]_[A6C]_F3.1_[A8C]_T3.1],157 nM
2,UCUCUUUGUACUACUCUCUU (ssRNA) [Ic_S1_P3E.1_K3.1_C3.1_H3.1_A3.1_[T5C]_[A6T]_F3.1_[T7A]_[A8C]_T3.1],349 nM
3,UCUCUUUGUACUUUUCUCUU (ssRNA) [Ic_S1_P3E.1_K3.1_C3.1_H3.1_A3.1_[T5C]_[A6T]_F3.1_[A8T]_T3.1],19.5 nM
4,UCUCUUUGUACCACUCUCUU (ssRNA) [Ic_S1_P3E.1_K3.1_C3.1_H3.1_A3.1_[T5C]_[A6C]_F3.1_[T7A]_[A8C]_T3.1],192 nM
5,UCUCUUUGUACUAGUCUCUU (ssRNA) [Ic_S1_P3E.1_K3.1_C3.1_H3.1_A3.1_[T5C]_[A6T]_F3.1_[T7A]_[A8G]_T3.1],524 nM
6,UCUCUUUGUACUUCUCUCUU (ssRNA) [Ic_S1_P3E.1_K3.1_C3.1_H3.1_A3.1_[T5C]_[A6T]_F3.1_[A8C]_T3.1],190 nM
7,UCUCUUUGUAGCGUUCUCUU (ssRNA) [Ic_S1_P3E.1_K3.1_C3.1_H3.1_A3.1_[T5G]_[A6C]_F3.1_[T7G]_[A8T]_T3.1],1510 nM
8,UCUCUUUGUACGCUUCUCUU (ssRNA) [Ic_S1_P3E.1_K3.1_C3.1_H3.1_A3.1_[T5C]_[A6G]_F3.1_[T7C]_[A8T]_T3.1],62.7 nM
9,UCUCUUUGUAGUGCUCUCUU (ssRNA) [Ic_S1_P3E.1_K3.1_C3.1_H3.1_A3.1_[T5G]_[A6T]_F3.1_[T7G]_[A8C]_T3.1],> 2300 nM
10,UCUCUUUGUACCGUUCUCUU (ssRNA) [Ic_S1_P3E.1_K3.1_C3.1_H3.1_A3.1_[T5C]_[A6C]_F3.1_[T7G]_[A8T]_T3.1],391 nM
11,UCUCUUUGUACUCUUCUCUU (ssRNA) [Ic_S1_P3E.1_K3.1_C3.1_H3.1_A3.1_[T5C]_[A6T]_F3.1_[T7C]_[A8T]_T3.1],44.3 nM
12,UCUCUUUGUAGCUGUCUCUU (ssRNA) [Ic_S1_P3E.1_K3.1_C3.1_H3.1_A3.1_[T5G]_[A6C]_F3.1_[A8G]_T3.1],864 nM
13,UCUCUUUGUAGUUGUCUCUU (ssRNA) [Ic_S1_P3E.1_K3.1_C3.1_H3.1_A3.1_[T5G]_[A6T]_F3.1_[A8G]_T3.1],1680 nM
14,UCUCUUUGUAGCAAUCUCUU (ssRNA) [Ic_S1_P3E.1_K3.1_C3.1_H3.1_A3.1_[T5G]_[A6C]_F3.1_[T7A]_T3.1],1060 nM
15,UCUCUUUGUACGUGUCUCUU (ssRNA) [Ic_S1_P3E.1_K3.1_C3.1_H3.1_A3.1_[T5C]_[A6G]_F3.1_[A8G]_T3.1],492 nM
16,UCUCUUUGUAGUCGUCUCUU (ssRNA) [Ic_S1_P3E.1_K3.1_C3.1_H3.1_A3.1_[T5G]_[A6T]_F3.1_[T7C]_[A8G]_T3.1],> 2300 nM
17,UCUCUUUGUACCCCUCUCUU (ssRNA) [Ic_S1_P3E.1_K3.1_C3.1_H3.1_A3.1_[T5C]_[A6C]_F3.1_[T7C]_[A8C]_T3.1],953 nM
18,UCUCUUUGUAGUCAUCUCUU (ssRNA) [Ic_S1_P3E.1_K3.1_C3.1_H3.1_A3.1_[T5G]_[A6T]_F3.1_[T7C]_T3.1],2020 nM
19,UCUCUUUGUACUAAUCUCUU (ssRNA) [Ic_S1_P3E.1_K3.1_C3.1_H3.1_A3.1_[T5C]_[A6T]_F3.1_[T7A]_T3.1],77.4 nM
20,UCUCUUUGUACCUUUCUCUU (ssRNA) [Ic_S1_P3E.1_K3.1_C3.1_H3.1_A3.1_[T5C]_[A6C]_F3.1_[A8T]_T3.1],34 nM
21,UCUCUUUGUACGGCUCUCUU (ssRNA) [Ic_S1_P3E.1_K3.1_C3.1_H3.1_A3.1_[T5C]_[A6G]_F3.1_[T7G]_[A8C]_T3.1],1730 nM

row,Binder,Kd
1,UCUCUUUGUACUAUUCUCUU (ssRNA) [Ic_S1_P3E.1_K3.1_C3.1_H3.1_A3.1_[T5C]_[A6T]_F3.1_[T7A]_[A8T]_T3.1],9.51 nM
2,UCUCUUUGUACCAUUCUCUU (ssRNA) [Ic_S1_P3E.1_K3.1_C3.1_H3.1_A3.1_[T5C]_[A6C]_F3.1_[T7A]_[A8T]_T3.1],8.04 nM
3,UCUCUUUGUACUGGUCUCUU (ssRNA) [Ic_S1_P3E.1_K3.1_C3.1_H3.1_A3.1_[T5C]_[A6T]_F3.1_[T7G]_[A8G]_T3.1],1060 nM
4,UCUCUUUGUACCGCUCUCUU (ssRNA) [Ic_S1_P3E.1_K3.1_C3.1_H3.1_A3.1_[T5C]_[A6C]_F3.1_[T7G]_[A8C]_T3.1],989 nM
5,UCUCUUUGUACGCCUCUCUU (ssRNA) [Ic_S1_P3E.1_K3.1_C3.1_H3.1_A3.1_[T5C]_[A6G]_F3.1_[T7C]_[A8C]_T3.1],719 nM
6,UCUCUUUGUACGCAUCUCUU (ssRNA) [Ic_S1_P3E.1_K3.1_C3.1_H3.1_A3.1_[T5C]_[A6G]_F3.1_[T7C]_T3.1],872 nM
7,UCUCUUUGUAGUACUCUCUU (ssRNA) [Ic_S1_P3E.1_K3.1_C3.1_H3.1_A3.1_[T5G]_[A6T]_F3.1_[T7A]_[A8C]_T3.1],1210 nM
8,UCUCUUUGUACUGCUCUCUU (ssRNA) [Ic_S1_P3E.1_K3.1_C3.1_H3.1_A3.1_[T5C]_[A6T]_F3.1_[T7G]_[A8C]_T3.1],842 nM
9,UCUCUUUGUAGCAGUCUCUU (ssRNA) [Ic_S1_P3E.1_K3.1_C3.1_H3.1_A3.1_[T5G]_[A6C]_F3.1_[T7A]_[A8G]_T3.1],1740 nM
10,UCUCUUUGUACUCCUCUCUU (ssRNA) [Ic_S1_P3E.1_K3.1_C3.1_H3.1_A3.1_[T5C]_[A6T]_F3.1_[T7C]_[A8C]_T3.1],384 nM
11,UCUCUUUGUAGUAUUCUCUU (ssRNA) [Ic_S1_P3E.1_K3.1_C3.1_H3.1_A3.1_[T5G]_[A6T]_F3.1_[T7A]_[A8T]_T3.1],86.2 nM
12,Ic_S4_P5E.1_K5.1_C5.1_H5.1_A5.1_[T6G]_[A7C]_F5.1_T5.1 (ssRNA) RNA: UUUGACAACUGAUCGUUCUUUCUUGUAUGCUUAUUCUUUCUCGAUCAGUUGUCUUU,12.5 nM
13,Ib_S4_P5E.1_K5.1_C5.1_H5.1_A5.1_[T6A]_[A7G]_F5.1_T5.1 (ssRNA) RNA: UUUGACAACUGAUCGUUCUUUCUUGUAUAGUUAUUCUUUCUCGAUCAGUUGUCUUU,10.7 nM
14,Ib_S4_P5E.1_K5.1_C5.1_H5.1_A5.1_[T6C]_[A7C]_F5.1_T5.1 (ssRNA) RNA: UUUGACAACUGAUCGUUCUUUCUUGUAUCCUUAUUCUUUCUCGAUCAGUUGUCUUU,4.55 nM
15,Ia_S4_P5E.1_K5.1_C5.1_H5.1_A5.1_F5.1_[T9C]_T5.1 (ssRNA) RNA: UUUGACAACUGAUCGUUCUUUCUUGUAUUAUCAUUCUUUCUCGAUCAGUUGUCUUU,72 nM
16,Ic_S4_P5E.1_K5.1_C5.1_H5.1_A5.1_F5.1_[A10G]_T5.1 (ssRNA) RNA: UUUGACAACUGAUCGUUCUUUCUUGUAUUAUUGUUCUUUCUCGAUCAGUUGUCUUU,11.8 nM
17,Ia_S4_P5E.1_K5.1_C5.1_H5.1_[T1A]_A5.1_F5.1_T5.1 (ssRNA) RNA: UUUGACAACUGAUCGUUCUUUCUAGUAUUAUUAUUCUUUCUCGAUCAGUUGUCUUU,> 2300 nM
18,Ib_S4_P5E.1_K5.1_C5.1_H5.1_A5.1_[T6A]_[A7C]_F5.1_T5.1 (ssRNA) RNA: UUUGACAACUGAUCGUUCUUUCUUGUAUACUUAUUCUUUCUCGAUCAGUUGUCUUU,2.42 nM
19,Ia_S4_P5E.1_K5.1_C5.1_H5.1_A5.1_F5.1_[T9A]_T5.1 (ssRNA) RNA: UUUGACAACUGAUCGUUCUUUCUUGUAUUAUAAUUCUUUCUCGAUCAGUUGUCUUU,2.07 nM
20,Ia_S4_P5E.1_K5.1_C5.1_H5.1_A5.1_F5.1_[T8A]_T5.1 (ssRNA) RNA: UUUGACAACUGAUCGUUCUUUCUUGUAUUAAUAUUCUUUCUCGAUCAGUUGUCUUU,6.15 nM
21,UCUCUUUGUACAGCUCUCUU (ssRNA) [Ic_S1_P3E.1_K3.1_C3.1_H3.1_A3.1_[T5C]_F3.1_[T7G]_[A8C]_T3.1],76.7 nM

row,Binder,Kd
1,UCUCUUUGUACCCAUCUCUU (ssRNA) [Ic_S1_P3E.1_K3.1_C3.1_H3.1_A3.1_[T5C]_[A6C]_F3.1_[T7C]_T3.1],429 nM
2,UCUCUUUGUACACGUCUCUU (ssRNA) [Ic_S1_P3E.1_K3.1_C3.1_H3.1_A3.1_[T5C]_F3.1_[T7C]_[A8G]_T3.1],27.2 nM
3,UCUCUUUGUAGCCAUCUCUU (ssRNA) [Ic_S1_P3E.1_K3.1_C3.1_H3.1_A3.1_[T5G]_[A6C]_F3.1_[T7C]_T3.1],1850 nM
4,UCUCUUUGUACUCAUCUCUU (ssRNA) [Ic_S1_P3E.1_K3.1_C3.1_H3.1_A3.1_[T5C]_[A6T]_F3.1_[T7C]_T3.1],445 nM
5,UCUCUUUGUACUUGUCUCUU (ssRNA) [Ic_S1_P3E.1_K3.1_C3.1_H3.1_A3.1_[T5C]_[A6T]_F3.1_[A8G]_T3.1],112 nM
6,UCUCUUUGUAGCUUUCUCUU (ssRNA) [Ic_S1_P3E.1_K3.1_C3.1_H3.1_A3.1_[T5G]_[A6C]_F3.1_[A8T]_T3.1],296 nM
7,UCUCUUUGUACGAUUCUCUU (ssRNA) [Ic_S1_P3E.1_K3.1_C3.1_H3.1_A3.1_[T5C]_[A6G]_F3.1_[T7A]_[A8T]_T3.1],29.9 nM
8,UCUCUUUGUAGUCUUCUCUU (ssRNA) [Ic_S1_P3E.1_K3.1_C3.1_H3.1_A3.1_[T5G]_[A6T]_F3.1_[T7C]_[A8T]_T3.1],513 nM
9,UCUCUUUGUACGUUUCUCUU (ssRNA) [Ic_S1_P3E.1_K3.1_C3.1_H3.1_A3.1_[T5C]_[A6G]_F3.1_[A8T]_T3.1],40.7 nM
10,UCUCUUUGUAGUGUUCUCUU (ssRNA) [Ic_S1_P3E.1_K3.1_C3.1_H3.1_A3.1_[T5G]_[A6T]_F3.1_[T7G]_[A8T]_T3.1],659 nM
11,UCUCUUUGUAGCCGUCUCUU (ssRNA) [Ic_S1_P3E.1_K3.1_C3.1_H3.1_A3.1_[T5G]_[A6C]_F3.1_[T7C]_[A8G]_T3.1],> 2300 nM
12,UCUCUUUGUAGUCCUCUCUU (ssRNA) [Ic_S1_P3E.1_K3.1_C3.1_H3.1_A3.1_[T5G]_[A6T]_F3.1_[T7C]_[A8C]_T3.1],2000 nM
13,UCUCUUUGUACCUGUCUCUU (ssRNA) [Ic_S1_P3E.1_K3.1_C3.1_H3.1_A3.1_[T5C]_[A6C]_F3.1_[A8G]_T3.1],115 nM
14,UCUCUUUGUAGUAAUCUCUU (ssRNA) [Ic_S1_P3E.1_K3.1_C3.1_H3.1_A3.1_[T5G]_[A6T]_F3.1_[T7A]_T3.1],1270 nM
15,UCUCUUUGUAGCAUUCUCUU (ssRNA) [Ic_S1_P3E.1_K3.1_C3.1_H3.1_A3.1_[T5G]_[A6C]_F3.1_[T7A]_[A8T]_T3.1],42.4 nM
16,UCUCUUUGUAGCUCUCUCUU (ssRNA) [Ic_S1_P3E.1_K3.1_C3.1_H3.1_A3.1_[T5G]_[A6C]_F3.1_[A8C]_T3.1],> 2300 nM
17,UCUCUUUGUACCCUUCUCUU (ssRNA) [Ic_S1_P3E.1_K3.1_C3.1_H3.1_A3.1_[T5C]_[A6C]_F3.1_[T7C]_[A8T]_T3.1],59.5 nM
18,UCUCUUUGUACGAAUCUCUU (ssRNA) [Ic_S1_P3E.1_K3.1_C3.1_H3.1_A3.1_[T5C]_[A6G]_F3.1_[T7A]_T3.1],891 nM
19,UCUCUUUGUAGUUUUCUCUU (ssRNA) [Ic_S1_P3E.1_K3.1_C3.1_H3.1_A3.1_[T5G]_[A6T]_F3.1_[A8T]_T3.1],403 nM
20,UCUCUUUGUACGGUUCUCUU (ssRNA) [Ic_S1_P3E.1_K3.1_C3.1_H3.1_A3.1_[T5C]_[A6G]_F3.1_[T7G]_[A8T]_T3.1],385 nM
